# B1: C-terminal domain of HIV-1 integrase starting at residue 213, C-terminal His-tag (domain or fragment)
# chain: LQKQITKIQNFRVYYRDSRDPVWKGPAKLLWKGEGAVVIQDNSDIKVVPRRKAKIIRDYGKQMAGDDCVASRQDED
# modifications: homodimer; mature mitochondrial form (19 specific + 576 shared residues); HA-tag left out
# B2: HIV-1 integrase catalytic core domain (deletion of the NTD and the CTD), C-terminal His-tag (domain or fragment)
# chain: MHGQVDCSPGIWQLDCTHLEGKVILVAVHVASGYIEAEVIPAETGQETAYFLLKLAGRWPVKTVHTDNGSNFTSTTVKAACWWAGIKQEFGIPYNPQSQGVIESMNKELKKIIGQVRDQAEHLKTAVQMAVFIHNFKRKGGIGGYSAGERIVDIIATDIQTKE
# modifications: homodimer; mature mitochondrial form (19 specific + 576 shared residues); HA-tag left out
# B3: HIV-1 integrase with a deletion of the NTD, C-terminal His-tag (domain or fragment)
# chain: MHGQVDCSPGIWQLDCTHLEGKVILVAVHVASGYIEAEVIPAETGQETAYFLLKLAGRWPVKTVHTDNGSNFTSTTVKAACWWAGIKQEFGIPYNPQSQGVIESMNKELKKIIGQVRDQAEHLKTAVQMAVFIHNFKRKGGIGGYSAGERIVDIIATDIQTKELQKQITKIQNFRVYYRDSRDPVWKGPAKLLWKGEGAVVIQDNSDIKVVPRRKAKIIRDYGKQMAGDDCVASRQDED
# modifications: homodimer; mature mitochondrial form (19 specific + 576 shared residues); HA-tag left out
# B4: Human mitochondrial LysRS with a C-terminal HA-tag (enzyme)
# chain: not shown
# modifications: homodimer; mature mitochondrial form (19 specific + 576 shared residues); HA-tag left out
# B5: IN-CTD222 with a deletion of 15 C-terminal residues, C-terminal His-tag (domain or fragment)
# chain: NFRVYYRDSRDPVWKGPAKLLWKGEGAVVIQDNSDIKVVPRRKAKIIRDYGK
# notes: source: E. coli BL21(DE3), purified (Ni-NTA, Mono S); not shown: His6, C-terminal, kept
# What was measured:
# Assay in all cases: AlphaScreen or HTRF
# Conditions in all cases: both partners purified
# [1] = molecular target: Human mitochondrial LysRS with a C-terminal HA-tag (human, UniProt Q15046-2 1-625)
# [2] = molecular target: T1, Full-length integrase from HIV-1 with a C-terminal His-tag (HIV-1)
# T1 construct: source: E. coli BL21(DE3), purified (Ni-NTA, Mono S); not shown: His6, C-terminal, kept
# [3] = molecular target: B4
Binder,Kd [1] [nM],other results
B1,190,
B2,> 400,
B3,3,
B4,,Kd [2]: 2.6 nM
B5,,Kd [3]: 142 nM
